Patent publication US20140336116A1 (GLYTECH, published 2014)
Like-named read-outs stand apart in the source and are kept apart here. Values belong to the binder of their own block, whether it stands above or below them. Bridges are numbered along the chain shown (N, C = ends). Where no end group is shown, it is not given here. Side-chain parts run from the residue outwards. disialo(aminoethylamide) = disialo sugar chain with sialic acid carboxy groups modified by aminoethylamino groups; diGlcNAc = diGlcNAc sugar chain; disialo = disialo sugar chain; GlcNAc = N-acetylglucosamine; asialo = not defined here

Tests used:
[1] = biological target: T1, somatostatin receptor SSTR1 (Human, UniProt P30872 1-391); experiment: cell-based or functional assay
[2] = biological target: somatostatin receptor SSTR5 (Human, UniProt P35346 1-364); experiment: cell-based or functional assay
[3] = biological target: T2, somatostatin receptor SSTR4 (Human, UniProt P31391 1-388); experiment: cell-based or functional assay
[4] = biological target: T3, somatostatin receptor SSTR2 (Human, UniProt P30874 1-369); experiment: cell-based or functional assay
[5] = biological target: T4, somatostatin receptor SSTR3 (Human, UniProt P32745 1-418); experiment: cell-based or functional assay
[6] = biological target: T3, somatostatin receptor SSTR2; experiment: radioligand competition
[7] = biological target: T2, somatostatin receptor SSTR4; experiment: cell-based or functional assay; remark: listed apart in the source
[8] = biological target: T1, somatostatin receptor SSTR1; experiment: cell-based or functional assay; remark: listed apart in the source
[9] = biological target: T3, somatostatin receptor SSTR2; experiment: cell-based or functional assay; remark: listed apart in the source
[10] = biological target: T4, somatostatin receptor SSTR3; experiment: cell-based or functional assay; remark: listed apart in the source
[11] = biological target: T2, somatostatin receptor SSTR4; experiment: cell-based or functional assay; remark: listed apart in the source

T2 sequence (P31391 whole entry): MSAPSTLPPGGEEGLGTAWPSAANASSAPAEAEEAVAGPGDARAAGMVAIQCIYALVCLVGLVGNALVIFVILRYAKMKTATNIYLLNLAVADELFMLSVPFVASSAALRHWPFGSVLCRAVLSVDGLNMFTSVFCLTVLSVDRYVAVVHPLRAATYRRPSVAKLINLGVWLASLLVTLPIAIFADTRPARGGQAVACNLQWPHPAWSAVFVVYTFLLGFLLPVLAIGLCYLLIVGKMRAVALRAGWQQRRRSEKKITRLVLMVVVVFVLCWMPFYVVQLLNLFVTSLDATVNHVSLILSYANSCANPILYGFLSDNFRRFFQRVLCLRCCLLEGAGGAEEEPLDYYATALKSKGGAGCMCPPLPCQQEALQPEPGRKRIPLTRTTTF
T3 sequence (P30874 whole entry): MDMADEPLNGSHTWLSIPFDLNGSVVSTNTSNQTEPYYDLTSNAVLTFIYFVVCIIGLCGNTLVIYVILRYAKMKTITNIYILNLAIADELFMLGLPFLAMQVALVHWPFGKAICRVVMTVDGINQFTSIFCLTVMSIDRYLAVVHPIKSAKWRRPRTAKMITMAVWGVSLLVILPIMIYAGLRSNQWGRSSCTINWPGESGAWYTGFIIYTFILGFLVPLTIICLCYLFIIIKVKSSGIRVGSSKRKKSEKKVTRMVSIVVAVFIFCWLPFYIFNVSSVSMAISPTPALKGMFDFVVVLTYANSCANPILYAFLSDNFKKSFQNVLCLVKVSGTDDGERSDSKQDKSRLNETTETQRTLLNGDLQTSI
T4 sequence (P32745 whole entry): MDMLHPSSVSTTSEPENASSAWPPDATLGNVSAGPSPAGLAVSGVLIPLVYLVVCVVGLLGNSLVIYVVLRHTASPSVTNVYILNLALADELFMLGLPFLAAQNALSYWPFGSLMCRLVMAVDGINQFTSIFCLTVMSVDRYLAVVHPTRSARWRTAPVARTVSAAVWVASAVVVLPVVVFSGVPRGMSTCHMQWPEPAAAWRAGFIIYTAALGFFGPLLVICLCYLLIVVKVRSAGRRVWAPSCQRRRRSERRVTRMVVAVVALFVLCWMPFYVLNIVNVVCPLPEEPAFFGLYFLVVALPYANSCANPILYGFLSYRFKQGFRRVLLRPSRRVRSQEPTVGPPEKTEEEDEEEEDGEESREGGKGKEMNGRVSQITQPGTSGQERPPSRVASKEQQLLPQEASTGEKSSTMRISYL
T1 sequence (P30872 whole entry): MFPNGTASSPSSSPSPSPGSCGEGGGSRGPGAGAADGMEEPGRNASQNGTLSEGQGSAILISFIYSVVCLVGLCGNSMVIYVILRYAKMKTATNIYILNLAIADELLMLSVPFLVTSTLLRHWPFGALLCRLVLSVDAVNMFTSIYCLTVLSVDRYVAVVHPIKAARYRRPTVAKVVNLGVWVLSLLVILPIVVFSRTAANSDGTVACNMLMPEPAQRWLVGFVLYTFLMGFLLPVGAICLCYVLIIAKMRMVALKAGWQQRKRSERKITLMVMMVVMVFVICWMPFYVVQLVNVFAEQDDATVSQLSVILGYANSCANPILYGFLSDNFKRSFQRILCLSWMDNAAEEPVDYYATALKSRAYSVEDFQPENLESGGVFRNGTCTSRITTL
Sequence of somatostatin receptor SSTR5 (P35346 whole entry): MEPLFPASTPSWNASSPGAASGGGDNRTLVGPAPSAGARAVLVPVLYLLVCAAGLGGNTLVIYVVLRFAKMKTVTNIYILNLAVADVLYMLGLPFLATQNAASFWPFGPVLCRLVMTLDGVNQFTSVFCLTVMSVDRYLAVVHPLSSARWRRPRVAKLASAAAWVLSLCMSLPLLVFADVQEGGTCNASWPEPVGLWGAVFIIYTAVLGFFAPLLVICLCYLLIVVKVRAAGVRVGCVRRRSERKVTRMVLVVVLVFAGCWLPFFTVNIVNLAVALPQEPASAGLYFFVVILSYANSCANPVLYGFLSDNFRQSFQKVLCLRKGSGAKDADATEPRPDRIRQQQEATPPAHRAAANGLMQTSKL

Binder: C([Asn-disialo])ANSNPAMAPRERKAGCKNFFWKTFTSC (disulfide 17-28) [S1C(Asn(disialo))-SRIF28]
IC50, cAMP production suppressing action [1]: 2 nM

Binder: C(GlcNAc)ANSNPAMAPRERKAGCKNFFWKTFTSC (disulfide 17-28) [S1C(GlcNAc)-SRIF28]
IC50, cAMP production suppressing action [4]: 0.04 nM

Binder: C(asialo)ANSNPAMAPRERKAGCKNFFWKTFTSC (disulfide 17-28; reading uncertain) [S1C(asialo)-SRIF28]
IC50 [6]: 0.2 nM

B1: S1-3C(asialo)-SRIF28 (peptide)
peptide: CCCANSNPAMAPRERKAGCKNFFWKTFTSC
modifications: Ser1 replaced by three consecutive Cys each with an asialo sugar chain; disulfide Cys17-Cys28
IC50, cAMP production suppressing action [3]: 0.1 nM

Binder: C(disialo(aminoethylamide))ANSNPAMAPRERKAGCKNFFWKTFTSC (disulfide 17-28) [S1C(disialo(aminoethylamide))-SRIF28]
IC50, cAMP production suppressing action [8]: 1 nM | IC50, cAMP production suppressing action [9]: 0.1 nM | IC50, cAMP production suppressing action [10]: 0.3 nM

Binder: C(disialo)ANSNPAMAPRERKAGCKNFFWKTFTSC (disulfide 17-28) [S1C(disialo)-SRIF28]
IC50, cAMP production suppressing action [9]: 0.075 nM | IC50, cAMP production suppressing action [7]: 0.065 nM | Ki [6]: 0.269 nM

Binder: C(disialo)ANSNPAMAPRERKAGCKC(GlcNAc)FFWKTFTSC (disulfide 17-28) [S1C(disialo)•N19C(GlcNAc)-SRIF28]
IC50, cAMP production suppressing action [4]: 0.08 nM

Binder: C(disialo)ANSC(disialo)PAMAPRERKAGCKNFFWKTFTSC (disulfide 17-28) [S1C(disialo)•N5C(disialo)-SRIF28]
IC50, cAMP production suppressing action [2]: 0.09 nM

Binder: C(diGlcNAc)ANSNPAMAPRERKAGCKNFFWKTFTSC (disulfide 17-28) [S1C(diGlcNAc)-SRIF28]
IC50, cAMP production suppressing action [3]: 0.05 nM

The next lines start with the values.

IC50, cAMP production suppressing action [2]: 0.09 nM
Binder: C(trisialo sugar chain)ANSNPAMAPRERKAGCKNFFWKTFTSC (disulfide 17-28) [S1C(trisialo)-SRIF28]

IC50, cAMP production suppressing action [3]: 0.1 nM
Binder: CAGCKNFFWKTFTSC (disialo sugar chain on the Cys added before Ala15; disulfide Cys17-Cys28) [C(disialo)-SRIF14]

IC50, cAMP production suppressing action [5]: 0.1 nM
Binder: C(disialo sugar chain)KAGCKNFFWKTFTSC (disulfide 5-16) [C(disialo)-K-SRIF14]

IC50, cAMP production suppressing action [7]: 0.05 nM
Binder: C(disialo sugar chain)RKAGCKNFFWKTFTSC (disulfide 6-17) [C(disialo)-R-K-SRIF14]

IC50, cAMP production suppressing action [11]: 1.6 nM
B2: 3C(disialo)-R-K-SRIF14 (peptide)
peptide: CCCRKAGCKNFFWKTFTSC
modifications: disialo sugar chain on each of the three N-terminal Cys of the added Cys-Cys-Cys-Arg-Lys-; disulfide Cys17-Cys28
